# Literature values, collected in article PMC2730980.
# pKd: −log10 of the molar value.
# Target: Synaptotagmin II (Rattus norvegicus) (UniProt P29101)
# Sequence of UniProt P29101 (P29101 whole entry): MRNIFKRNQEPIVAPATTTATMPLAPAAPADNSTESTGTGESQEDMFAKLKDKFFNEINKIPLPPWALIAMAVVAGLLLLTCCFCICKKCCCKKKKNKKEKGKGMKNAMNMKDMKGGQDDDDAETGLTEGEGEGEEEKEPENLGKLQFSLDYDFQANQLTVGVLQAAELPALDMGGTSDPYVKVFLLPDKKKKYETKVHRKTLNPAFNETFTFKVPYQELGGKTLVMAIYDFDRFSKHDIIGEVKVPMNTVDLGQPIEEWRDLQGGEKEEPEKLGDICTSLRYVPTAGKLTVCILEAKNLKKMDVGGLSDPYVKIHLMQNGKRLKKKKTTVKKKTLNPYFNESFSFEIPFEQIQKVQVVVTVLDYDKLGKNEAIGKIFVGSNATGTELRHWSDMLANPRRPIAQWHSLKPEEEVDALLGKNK
substance,measurement,value
Botulinum neurotoxin type B (from UniProt P10844),pKd,9.40
